Assay results taken from PMC8348266, “Intrinsically disordered electronegative clusters improve stability and binding specificity of RNA-binding proteins”.

How the values were obtained:
[1] = biological target: T1, Nop15 WT (1xENC) (Saccharomyces cerevisiae, UniProt P53927 40-191); experiment: fluorescence polarization; 150 mM NaCl; Nop15 FP: 10 nM RNA/DNA, 20 mM Tris-HCl pH 7.5, 0.02% Tween 20, 150 or 50 mM NaCl; SRSF3 FP: 10 mM MES pH 5.5, 50 mM Arg/Glu, 0.1 mM TCEP, 0.02% Tween 20; incubated 37 °C 30 min then 25 °C 20 min, read at RT; settings: protein: recombinant, tags: N-terminal SUMO tag (pSMT3) cleaved with Ulp1, label: 5' fluorescein
T1 sequence: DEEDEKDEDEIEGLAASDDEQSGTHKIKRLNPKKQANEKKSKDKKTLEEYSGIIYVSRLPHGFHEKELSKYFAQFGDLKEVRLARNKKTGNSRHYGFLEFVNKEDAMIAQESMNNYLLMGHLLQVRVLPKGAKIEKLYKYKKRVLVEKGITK

[2] = biological target: T2, Nop15 no-ENC (Saccharomyces cerevisiae, UniProt P53927 =SGGSSGKSGSG+50-191, internal_change); experiment: as above; settings: protein: recombinant, tags: N-terminal SUMO tag (pSMT3) cleaved with Ulp1, label: 5' fluorescein
T2 sequence: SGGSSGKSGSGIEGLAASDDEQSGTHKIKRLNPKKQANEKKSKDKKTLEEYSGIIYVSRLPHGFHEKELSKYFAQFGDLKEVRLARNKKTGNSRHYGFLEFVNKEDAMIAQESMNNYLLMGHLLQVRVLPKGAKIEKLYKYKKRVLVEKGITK

[3] = biological target: T3, Nop15 no-linker (Saccharomyces cerevisiae, UniProt P53927 40-191, del60-76); experiment: as above; settings: protein: recombinant, tags: N-terminal SUMO tag (pSMT3) cleaved with Ulp1, label: 5' fluorescein
T3 sequence: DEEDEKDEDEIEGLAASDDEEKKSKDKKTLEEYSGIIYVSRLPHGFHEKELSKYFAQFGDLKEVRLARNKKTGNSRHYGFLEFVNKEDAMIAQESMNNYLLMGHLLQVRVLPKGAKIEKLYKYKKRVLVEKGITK

[4] = biological target: T4, Nop15 2xENC (Saccharomyces cerevisiae, UniProt P53927 39-49+39-191, internal_change); experiment: fluorescence polarization; ND, too weak for detection; Nop15 FP: 10 nM RNA/DNA, 20 mM Tris-HCl pH 7.5, 0.02% Tween 20, 150 or 50 mM NaCl; SRSF3 FP: 10 mM MES pH 5.5, 50 mM Arg/Glu, 0.1 mM TCEP, 0.02% Tween 20; incubated 37 °C 30 min then 25 °C 20 min, read at RT; settings: protein: recombinant; tags: N-terminal SUMO tag (pSMT3) cleaved with Ulp1; label: 5' fluorescein; single strand
T4 sequence: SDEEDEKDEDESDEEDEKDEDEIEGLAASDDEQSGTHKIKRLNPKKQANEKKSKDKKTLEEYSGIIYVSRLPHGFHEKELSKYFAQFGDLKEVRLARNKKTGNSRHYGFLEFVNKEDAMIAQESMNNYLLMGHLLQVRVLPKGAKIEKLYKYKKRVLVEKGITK

[5] = biological target: T3, Nop15 no-linker; experiment: as above; settings: protein: recombinant; tags: N-terminal SUMO tag (pSMT3) cleaved with Ulp1; label: 5' fluorescein; single strand
[6] = biological target: T2, Nop15 no-ENC; experiment: fluorescence polarization; 50 mM NaCl; Nop15 FP: 10 nM RNA/DNA, 20 mM Tris-HCl pH 7.5, 0.02% Tween 20, 150 or 50 mM NaCl; SRSF3 FP: 10 mM MES pH 5.5, 50 mM Arg/Glu, 0.1 mM TCEP, 0.02% Tween 20; incubated 37 °C 30 min then 25 °C 20 min, read at RT; settings: protein: recombinant; tags: N-terminal SUMO tag (pSMT3) cleaved with Ulp1; label: 5' fluorescein; single strand
[7] = biological target: T4, Nop15 2xENC; experiment: fluorescence polarization; 150 mM NaCl; Nop15 FP: 10 nM RNA/DNA, 20 mM Tris-HCl pH 7.5, 0.02% Tween 20, 150 or 50 mM NaCl; SRSF3 FP: 10 mM MES pH 5.5, 50 mM Arg/Glu, 0.1 mM TCEP, 0.02% Tween 20; incubated 37 °C 30 min then 25 °C 20 min, read at RT; settings: protein: recombinant; tags: N-terminal SUMO tag (pSMT3) cleaved with Ulp1; label: 5' fluorescein; hairpin with 8 bp stem and 9-nt single-stranded region
[8] = hairpin with 8 bp stem and 9-nt single-stranded region

Binder: AGAGAGAGAGUCUCUCUCUC (structured_RNA) [nonspecific stem-loop RNA]
- Kd ([1]; hairpin, 8 bp stem): 945 ± 65 nM
- Kd ([2]; hairpin, 8 bp stem): 244 ± 18 nM
- Kd ([3]; hairpin, 8 bp stem): 14.1 ± 1.4 µM

Binder: UUCAGAGCA (ssRNA) [nonspecific ssRNA]
- binding result [4]: no binding
- binding result [5]: no binding
- Kd [6]: 427 ± 98 nM

Binder: UGAGUGAUACUCUUUGGAGUUAACUUGAAAUUGCU (structured_RNA) [ITS2 III.A 26-60]
- Kd [1, 8]: 215 ± 34 nM
- Kd [2, 8]: 173 ± 32 nM
- Kd [7]: 1870 ± 270 nM
- Kd [3, 8]: 0.583 ± 0.09 µM

Binder: AGAGAGAGA (ssDNA) [nonspecific ssDNA]
- binding result [4]: no binding
- binding result [5]: no binding
- Kd [6]: 1160 ± 150 nM
